Reference: publication PMC3981807

Substrate: O=P(O)(O)O[C@H]1[C@H](OP(=O)(O)O)[C@@H](OP(=O)(O)O)[C@H](OP(=O)(O)O)[C@@H](OP(=O)(O)O)[C@H]1OP(=O)(O)O
Test: purified protein
Conditions: 50 mM sodium acetate pH 4.0, 50 °C, ionic strength 50 mM (NaCl), 3 min, sodium phytate 0.006-0.800 mM

B1: Bd1204 (Bdellovibrio bacteriovorus HD100) (protein)
chain: QKSVSLTPDKPVSTKIPFFMTRPQPTTPVELVFDKDHAAPKPMNYRKSDSLRMSGSATFSPKALKEVAKPVKKNKASLYVFDLRQESHGLINDIPVTWYADRDWANADLNHEEAVRRERRLLGDLRVGDKIGTTAIQSIETEESMIRTGGHQYVRLTVTDHVRPVDSEVDRFIESVRALPENAWVHFHCRAGKGRTTTFMVLYDMLKNAKTDSFEEIIKRNTELSNDYDVLTVPADEKDWKYPYQKERAAFVTEFYNYAKAHPNGEGMLWGEWVLR
Km: 574 µM | kcat: 124 s⁻¹
